Test results published in patent publication US7250265B2, “Method of detecting and evaluating angiotensinogen receptor-modulating compounds using placental cells” (Marshfield Clinic, priority 2001, dated 2007).

B1: angiotensinogen (protein, UniProt P01019 25-476, looked up)
Angiotensinogen: DRVYIHPFHLVIHNESTCEQLAKANAGKPKDPTFIPAPIQAKTSPVDEKALQDQLVLVAAKLDTEDKLRAAMVGMLANFLGFRIYGMHSELWGVVHGATVLSPTAVFGTLASLYLGALDHTADRLQAILGVPWKDKNCTSRLDAHKVLSALQAVQGLLVAQGRADSQAQLLLSTVVGVFTAPGLHLKQPFVQGLALYTPVVLPRSLDFTELDVAAEKIDRFMQAVTGWKTGCSLMGASVDSTLAFNTYVHFQGKMKGFSLLAEPQEFWVDNSTSVSVPMLSGMGTFQHWSDIQDNFSVTQVPFTESACLLLIQPHYASDLDKVEGLTFQQNSLNWMKKLSPRTIHLTMPQLVLQGSYDLQDLLAQAELPAILHTELNLQKLSNDRIRVGEVLNSIFFELEADEREPTESTQQLNKPEVLEVTLNRPFLFAVYDQSATALHFLGRVANPLSTA
notes: AGT purified from human plasma; specific Ang I content 20 μg Ang I/mg protein
B2: ^125I-AGT: Purified AGT labeled with ^125I using iodobeads (protein, UniProt P01019 25-476, looked up)
Angiotensinogen: B1 Angiotensinogen
modifications: 125I label
notes: Purified AGT labeled with ^125I using iodobeads

Key:
[1] = test system: AGT receptor on CRL-7548 placental cells; experiment: Competitive binding study (unlabeled AGT added at zero time); parameters: species or system human; conditions: prior addition of 100-fold excess of unlabeled AGT, FIG. 2
Protocol: (§1) Cell Culture: CRL-7548 placental cells obtained from American Type Culture Collection were cultured in 89% Dulbecco's modification of Eagle medium (DEME) (Cellgro, Herndon, Va.), 10% fetal bovine serum (FBS) (Sigma, St. Louis, Mo.), 1% penicillin-streptomycin (5,000 U/ml and 5,000 μg/ml) (Cellgro) in a humidified atmosphere of 5.0% CO2 and […] at 37° C. The cells were passed in FBS-free DEME before experimentation, seeded in 35 mm diameter plastic wells and cultured for two days to reach about 80-90% confluence.
(§2) Purified AGT was labeled with ^125I using iodobeads Pierce, Rockford, Ill.), 5 mCi/0.5 mg AGT in 0.1 mol/L sodium phosphate buffer, pH 6.0. The bound isotope was separated from the free isotope by gel filtration on Sephadex G-25.
(§3) Labeled AGT, 3 μg, was added to each well containing 1 ml DEME and 2-3×10^4 cells. The cells were harvested at 5 min, and 2, 4, 8, 16 and 24 h, washed five times with DEME, lysed in a buffer containing 0.1 mol/L Tris, 2 mmol/L EDTA, 1% Triton-X 100, 1 μmol/L DTT, pH 7.8, and the radioactivity of the whole lysate measured. Each experiment contained two duplicates and the reported values are the mean of two experiments. The results are presented graphically in FIG. 1
This Example was carried out as described in Example 1, except that a 100-fold excess of unlabeled AGT was added at zero time. The cells were harvested at 5 min, and 4, 8 and 24 h. […]

[2] = test system: AGT receptor on CRL-7548 placental cells; experiment: Competitive displacement study (unlabeled AGT added at 8 h); assay type: binding, human
Protocol: as §1, §2, §3
[…] The cells were harvested at 5 min and at 2 intervals through 18 h.

CRL-7548 placental cells = experiment: Acid wash study (surface-bound versus internalized AGT); assay type: cell-based, human; conditions: for bound AGT removed from the cells by acid wash: 0.2 mol/L acetic acid, 0.5 mol/L NaCl, pH 2.5, 4° C., at 8 h
Protocol: as §1, §2, §3
This Example was carried out as described in Example 1. At 8 h, the cells in one set of duplicate wells were washed five times with DEME. Another set of duplicate samples were incubated with 0.2 mol/L acetic acid, 0.5 mol/L NaCl, pH 2.5, on ice (4° C.) for 6 min, and then washed five times with the acid wash. The control duplicates and the acid-washed duplicates were lysed and radioactivity was measured.

CRL-7458 fibroblasts = experiment: AGT uptake in other placental cell lines; assay type: cell-based; conditions: fibroblasts from human placenta at 37 weeks gestation (CRL-7458)
Description: (§4) The cells used in Examples 1-4 are fibroblasts originally derived from a human placenta obtained at 5 months gestation. Binding studies were also done with fibroblasts derived from a human placenta obtained at 37 weeks gestation (CRL-7458) and with fibroblasts derived from a human placenta at 40 weeks gestation (CRL-7459). These cells also took up AGT.

CRL-7459 fibroblasts = experiment: AGT uptake in other placental cell lines; assay type: cell-based; conditions: fibroblasts from human placenta at 40 weeks gestation (CRL-7459)
Description: as §4

[3] = test system: AGT receptor on CRL-7548 placental cells; experiment: AGT binding: 125I-labeled AGT bound by placental-derived cells; parameters: species or system human; conditions: 3 μg labeled AGT per well, 2-3×10^4 CRL-7548 cells, FIG. 1
Protocol: as §1
The AGT used in the Examples was purified from human plasma as described in Tewksbury (1983) Fed. Proc. 42:2724-2728; and Tewksbury et al. (1981) Biochem. Biophys. Res. Commun. 99:1311-1315. The specific Ang I content was 20 μg Ang I/mg protein. The theoretical value is 21 μg Ang I/mg protein.
as §2
Labeled AGT, 3 μg, was added to each well containing 1 ml DEME and 2-3×10^4 cells. The cells were harvested at 5 min, and 2, 4, 8, 16 and 24 h, washed five times with DEME, lysed in a buffer containing 0.1 mol/L Tris, 2 mmol/L EDTA, 1% Triton-X 100, 1 μmol/L DTT, pH 7.8, and the radioactivity of the whole lysate measured. […]

[4] = from displacement by unlabeled AGT

Molecule | decrease in maximal binding of 125I-AGT [1] [%] | bound 125I-AGT displaced ([2]; excess of unlabeled AGT added, FIG. 3) [%] | share of AGT bound to an AGT-specific receptor [2, 4] [%] | share of total binding attributed to nonspecific binding [2, 4] | bound AGT removed from the cells by acid wash (CRL-7548 placental cells) [%] | bound AGT internalized by the cells (CRL-7548 placental cells; inferred from acid wash at 8 h) | AGT uptake (CRL-7458 fibroblasts) | AGT uptake (CRL-7459 fibroblasts) | time to saturation of binding by placental-derived cells [3] [h]
B1 | 54 | 70 | 70 | approximately 30% | 46 | about half | took up AGT | took up AGT | –
B2 | – | – | – | – | 46 | – | – | – | 2 to 4
